According to patent US20110262445A1 (CEPHALON AUSTRALIA, published 2011):

T1: human IL-12 (human, UniProt P29460 23-328; P29459 23-219)
T1 construct: Recombinant (Peprotech); FLAG-tagged IL-12 in the flow cytometry assays, biotinylated in the IL-12Rβ2 assay; also called hIL-12
T1 sequence 1: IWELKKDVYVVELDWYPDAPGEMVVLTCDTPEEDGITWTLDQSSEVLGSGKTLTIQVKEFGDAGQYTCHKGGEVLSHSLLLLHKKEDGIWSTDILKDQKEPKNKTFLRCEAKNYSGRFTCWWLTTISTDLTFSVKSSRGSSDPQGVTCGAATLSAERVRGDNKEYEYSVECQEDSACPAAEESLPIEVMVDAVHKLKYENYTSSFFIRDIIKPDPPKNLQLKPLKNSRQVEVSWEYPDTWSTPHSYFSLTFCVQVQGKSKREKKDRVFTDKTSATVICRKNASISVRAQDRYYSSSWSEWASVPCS
T1 sequence 2: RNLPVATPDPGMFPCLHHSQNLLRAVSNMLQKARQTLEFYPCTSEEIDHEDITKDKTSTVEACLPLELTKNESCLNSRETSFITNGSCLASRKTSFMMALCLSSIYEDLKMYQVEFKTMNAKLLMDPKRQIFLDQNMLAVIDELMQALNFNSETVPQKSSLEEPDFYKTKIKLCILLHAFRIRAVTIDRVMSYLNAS

T2: human IL-23 (human, UniProt P29460 23-328; Q9NPF7 20-189)
T2 construct: Recombinant (Ebioscience); HIS-tagged in flow cytometry, biotinylated in some assays; also called hIL-23; rhIL-23
T2 sequence 1: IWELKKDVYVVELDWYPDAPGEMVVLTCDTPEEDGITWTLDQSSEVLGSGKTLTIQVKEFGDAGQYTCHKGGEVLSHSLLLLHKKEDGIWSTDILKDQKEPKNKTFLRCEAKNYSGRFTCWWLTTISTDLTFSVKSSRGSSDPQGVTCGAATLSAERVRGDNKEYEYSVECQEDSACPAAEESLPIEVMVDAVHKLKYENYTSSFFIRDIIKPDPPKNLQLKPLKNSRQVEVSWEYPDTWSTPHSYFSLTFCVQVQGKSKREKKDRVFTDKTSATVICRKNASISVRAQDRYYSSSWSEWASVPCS
T2 sequence 2: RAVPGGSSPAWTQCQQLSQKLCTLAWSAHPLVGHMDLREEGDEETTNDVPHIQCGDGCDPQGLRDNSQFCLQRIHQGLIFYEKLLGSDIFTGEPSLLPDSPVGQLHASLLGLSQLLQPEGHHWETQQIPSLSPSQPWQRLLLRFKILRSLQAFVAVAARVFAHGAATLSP


Experiments:
[1] = target: T1, human IL-12; experiment: ELISA, coated IL-12
How it was run: (§1)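 Maxisorp plates were coated overnight at 4° C with cytokine at 1 μg/mL in carbonate buffer pH 9.6, then blocked for 1 hour at 25° C with 1% BSA in PBS. Antibody titrations were allowed to bind for 1 hour at 25° C and detected with goat anti-human IgG or anti-murine immunoglobulin HRP (1:2000, 1 hour), followed by TMB development stopped with 1M HCl. Binding is reported as absorbance. Readings were taken at 450 nm against a 620 nm reference.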

[2] = target: T2, human IL-23; experiment: ELISA, coated IL-23
How it was run: as §1

Row | Binder | binding result [1] | binding result [2]
1 | Antibody 106 (antibody, human IgG1, kappa, V domains shown) VH: EVQLVQSGAEVKKPGATVKISCKASGFTFSDYYLHWVRQAPEKGLEWMGWIDPENGDTEYAPKFQGRVTITADTSTDTGYLELSSLRSEDTAVYYCAANKELRYFDVWGQGTLVTVSS VL: DIQMTQSPSSVSASVGDRVTITCRASQSISINLHWYQQKPGKAPKLLIYFASQSISGVPSRFSGSGSGTDFSLTINSLQPEDFARYYCQQSNSFPLTFGGGTKVEIKR | binds | binds
2 | Antibody 108 (antibody, human IgG1, kappa, V domains shown) VH: EVQLVQSGAEVKKPGATVKISCKASGYTISDYYLHWVRQAPEKGLEWMGWIDPENGDTEYAPKFQGRVTITADTSTDTGYLELSSLRSEDTAVYYCAANKELRYFDVWGQGTLVTVSS VL: DIQMTQSPSSVSASVGDRVTITCRASQSISINLHWYQQKPGKAPKLLIYFASQSISGVPSRFSGSGSGTDFSLTINSLQPEDFARYYCQQSNSFPLTFGGGTKVEIKR | binds | binds
3 | Antibody 123 (antibody, human IgG1, kappa, V domains shown) VH: EVQLVQSGAEVKKPGATVKISCKASGYTFSDYYLHWVRQAPEKGLEWMGWIDPENGDTEYAPKFQGRVTITADTSTDTGYLELSSLRSDDTAVYYCAANKELRYFDVWGQGTLVTVSS VL: DIQMTQSPSSVSASVGDRVTITCRASQSISINLHWYQQKPGKAPKLLIYFASQSISGVPSRFSGSGSGTDFSLTINSLQPEDFARYYCQQSNSFPLTFGGGTKVEIKR | binds | binds
4 | Antibody 107 (antibody, human IgG1, kappa, V domains shown) VH: EVQLVQSGAEVKKPGATVKISCKASGYNFSDYYLHWVRQAPEKGLEWMGWIDPENGDTEYAPKFQGRVTITADTSTDTGYLELSSLRSEDTAVYYCAANKELRYFDVWGQGTLVTVSS VL: DIQMTQSPSSVSASVGDRVTITCRASQSISINLHWYQQKPGKAPKLLIYFASQSISGVPSRFSGSGSGTDFSLTINSLQPEDFARYYCQQSNSFPLTFGGGTKVEIKR | binds | binds
5 | Antibody 110 (antibody, human IgG1, kappa, V domains shown) VH: EVQLVQSGAEVKKPGATVKISCKASGYTFSDYYLHWVKQAPEKGLEWMGWIDPENGDTEYAPKFQGRVTITADTSTDTGYLELSSLRSEDTAVYYCAANKELRYFDVWGQGTLVTVSS VL: DIQMTQSPSSVSASVGDRVTITCRASQSISINLHWYQQKPGKAPKLLIYFASQSISGVPSRFSGSGSGTDFSLTINSLQPEDFARYYCQQSNSFPLTFGGGTKVEIKR | binds | binds
6 | Antibody 120 (antibody, human IgG1, kappa, V domains shown) VH: EVQLVQSGAEVKKPGATVKISCKASGYTFSDYYLHWVRQAPEKGLEWMGWIDPENGDTEYAPKFQGRVTITADTSTDTGYLQLSSLRSEDTAVYYCAANKELRYFDVWGQGTLVTVSS VL: DIQMTQSPSSVSASVGDRVTITCRASQSISINLHWYQQKPGKAPKLLIYFASQSISGVPSRFSGSGSGTDFSLTINSLQPEDFARYYCQQSNSFPLTFGGGTKVEIKR | binds | binds
7 | Antibody 119 (antibody, human IgG1, kappa, V domains shown) VH: EVQLVQSGAEVKKPGATVKISCKASGYTFSDYYLHWVRQAPEKGLEWMGWIDPENGDTEYAPKFQGRVTITADTSTDTGYMELSSLRSEDTAVYYCAANKELRYFDVWGQGTLVTVSS VL: DIQMTQSPSSVSASVGDRVTITCRASQSISINLHWYQQKPGKAPKLLIYFASQSISGVPSRFSGSGSGTDFSLTINSLQPEDFARYYCQQSNSFPLTFGGGTKVEIKR | binds | binds
8 | Antibody 117 (antibody, human IgG1, kappa, V domains shown) VH: EVQLVQSGAEVKKPGATVKISCKASGYTFSDYYLHWVRQAPEKGLEWMGWIDPENGDTEYAPKFQGRVTITADTSTNTGYLELSSLRSEDTAVYYCAANKELRYFDVWGQGTLVTVSS VL: DIQMTQSPSSVSASVGDRVTITCRASQSISINLHWYQQKPGKAPKLLIYFASQSISGVPSRFSGSGSGTDFSLTINSLQPEDFARYYCQQSNSFPLTFGGGTKVEIKR | binds | binds
9 | Antibody 122 (antibody, human IgG1, kappa, V domains shown) VH: EVQLVQSGAEVKKPGATVKISCKASGYTFSDYYLHWVRQAPEKGLEWMGWIDPENGDTEYAPKFQGRVTITADTSTDTGYLELSSLTSEDTAVYYCAANKELRYFDVWGQGTLVTVSS VL: DIQMTQSPSSVSASVGDRVTITCRASQSISINLHWYQQKPGKAPKLLIYFASQSISGVPSRFSGSGSGTDFSLTINSLQPEDFARYYCQQSNSFPLTFGGGTKVEIKR | binds | binds

Second part, the binder after the results:

Row | binding result [1] | binding result [2] | Binder
10 | binds | binds | Antibody 115 (antibody, human IgG1, kappa, V domains shown) VH: EVQLVQSGAEVKKPGATVKISCKASGYTFSDYYLHWVRQAPEKGLEWMGWIDPENGDTEYAPKFQGRVTITTDTSTDTGYLELSSLRSEDTAVYYCAANKELRYFDVWGQGTLVTVSS VL: DIQMTQSPSSVSASVGDRVTITCRASQSISINLHWYQQKPGKAPKLLIYFASQSISGVPSRFSGSGSGTDFSLTINSLQPEDFARYYCQQSNSFPLTFGGGTKVEIKR
11 | binds | binds | Antibody 118 (antibody, human IgG1, kappa, V domains shown) VH: EVQLVQSGAEVKKPGATVKISCKASGYTFSDYYLHWVRQAPEKGLEWMGWIDPENGDTEYAPKFQGRVTITADTSTDTAYLELSSLRSEDTAVYYCAANKELRYFDVWGQGTLVTVSS VL: DIQMTQSPSSVSASVGDRVTITCRASQSISINLHWYQQKPGKAPKLLIYFASQSISGVPSRFSGSGSGTDFSLTINSLQPEDFARYYCQQSNSFPLTFGGGTKVEIKR
12 | binds | binds | Antibody 116 (antibody, human IgG1, kappa, V domains shown) VH: EVQLVQSGAEVKKPGATVKISCKASGYTFSDYYLHWVRQAPEKGLEWMGWIDPENGDTEYAPKFQGRVTITADTSSDTGYLELSSLRSEDTAVYYCAANKELRYFDVWGQGTLVTVSS VL: DIQMTQSPSSVSASVGDRVTITCRASQSISINLHWYQQKPGKAPKLLIYFASQSISGVPSRFSGSGSGTDFSLTINSLQPEDFARYYCQQSNSFPLTFGGGTKVEIKR
13 | binds | binds | Antibody 112 (antibody, human IgG1, kappa, V domains shown) VH: EVQLVQSGAEVKKPGATVKISCKASGYTFSDYYLHWVRQAPEKGLEWIGWIDPENGDTEYAPKFQGRVTITADTSTDTGYLELSSLRSEDTAVYYCAANKELRYFDVWGQGTLVTVSS VL: DIQMTQSPSSVSASVGDRVTITCRASQSISINLHWYQQKPGKAPKLLIYFASQSISGVPSRFSGSGSGTDFSLTINSLQPEDFARYYCQQSNSFPLTFGGGTKVEIKR
14 | binds | binds | Antibody 114 (antibody, human IgG1, kappa, V domains shown) VH: EVQLVQSGAEVKKPGATVKISCKASGYTFSDYYLHWVRQAPEKGLEWMGWIDPENGDTEYAPKFQGRVTMTADTSTDTGYLELSSLRSEDTAVYYCAANKELRYFDVWGQGTLVTVSS VL: DIQMTQSPSSVSASVGDRVTITCRASQSISINLHWYQQKPGKAPKLLIYFASQSISGVPSRFSGSGSGTDFSLTINSLQPEDFARYYCQQSNSFPLTFGGGTKVEIKR
15 | binds | binds | Antibody 109 (antibody, human IgG1, kappa, V domains shown) VH: EVQLVQSGAEVKKPGATVKISCKASGYTFKDYYLHWVRQAPEKGLEWMGWIDPENGDTEYAPKFQGRVTITADTSTDTGYLELSSLRSEDTAVYYCAANKELRYFDVWGQGTLVTVSS VL: DIQMTQSPSSVSASVGDRVTITCRASQSISINLHWYQQKPGKAPKLLIYFASQSISGVPSRFSGSGSGTDFSLTINSLQPEDFARYYCQQSNSFPLTFGGGTKVEIKR
16 | binds | binds | Antibody 121 (antibody, human IgG1, kappa, V domains shown) VH: EVQLVQSGAEVKKPGATVKISCKASGYTFSDYYLHWVRQAPEKGLEWMGWIDPENGDTEYAPKFQGRVTITADTSTDTGYLELRSLRSEDTAVYYCAANKELRYFDVWGQGTLVTVSS VL: DIQMTQSPSSVSASVGDRVTITCRASQSISINLHWYQQKPGKAPKLLIYFASQSISGVPSRFSGSGSGTDFSLTINSLQPEDFARYYCQQSNSFPLTFGGGTKVEIKR
17 | binds | binds | Antibody 113 (antibody, human IgG1, kappa, V domains shown) VH: EVQLVQSGAEVKKPGATVKISCKASGYTFSDYYLHWVRQAPEKGLEWMGWIDPENGDTEYAPKFQGRATITADTSTDTGYLELSSLRSEDTAVYYCAANKELRYFDVWGQGTLVTVSS VL: DIQMTQSPSSVSASVGDRVTITCRASQSISINLHWYQQKPGKAPKLLIYFASQSISGVPSRFSGSGSGTDFSLTINSLQPEDFARYYCQQSNSFPLTFGGGTKVEIKR
